Reference: doi:10.1101/2023.02.03.526966

What follows are substances tested against recombinant mouse nidogen-2 (ELISA) (mouse) (UniProt O88322) (assay: ELISA).
UniProt O88322, sequence (O88322 31-1403): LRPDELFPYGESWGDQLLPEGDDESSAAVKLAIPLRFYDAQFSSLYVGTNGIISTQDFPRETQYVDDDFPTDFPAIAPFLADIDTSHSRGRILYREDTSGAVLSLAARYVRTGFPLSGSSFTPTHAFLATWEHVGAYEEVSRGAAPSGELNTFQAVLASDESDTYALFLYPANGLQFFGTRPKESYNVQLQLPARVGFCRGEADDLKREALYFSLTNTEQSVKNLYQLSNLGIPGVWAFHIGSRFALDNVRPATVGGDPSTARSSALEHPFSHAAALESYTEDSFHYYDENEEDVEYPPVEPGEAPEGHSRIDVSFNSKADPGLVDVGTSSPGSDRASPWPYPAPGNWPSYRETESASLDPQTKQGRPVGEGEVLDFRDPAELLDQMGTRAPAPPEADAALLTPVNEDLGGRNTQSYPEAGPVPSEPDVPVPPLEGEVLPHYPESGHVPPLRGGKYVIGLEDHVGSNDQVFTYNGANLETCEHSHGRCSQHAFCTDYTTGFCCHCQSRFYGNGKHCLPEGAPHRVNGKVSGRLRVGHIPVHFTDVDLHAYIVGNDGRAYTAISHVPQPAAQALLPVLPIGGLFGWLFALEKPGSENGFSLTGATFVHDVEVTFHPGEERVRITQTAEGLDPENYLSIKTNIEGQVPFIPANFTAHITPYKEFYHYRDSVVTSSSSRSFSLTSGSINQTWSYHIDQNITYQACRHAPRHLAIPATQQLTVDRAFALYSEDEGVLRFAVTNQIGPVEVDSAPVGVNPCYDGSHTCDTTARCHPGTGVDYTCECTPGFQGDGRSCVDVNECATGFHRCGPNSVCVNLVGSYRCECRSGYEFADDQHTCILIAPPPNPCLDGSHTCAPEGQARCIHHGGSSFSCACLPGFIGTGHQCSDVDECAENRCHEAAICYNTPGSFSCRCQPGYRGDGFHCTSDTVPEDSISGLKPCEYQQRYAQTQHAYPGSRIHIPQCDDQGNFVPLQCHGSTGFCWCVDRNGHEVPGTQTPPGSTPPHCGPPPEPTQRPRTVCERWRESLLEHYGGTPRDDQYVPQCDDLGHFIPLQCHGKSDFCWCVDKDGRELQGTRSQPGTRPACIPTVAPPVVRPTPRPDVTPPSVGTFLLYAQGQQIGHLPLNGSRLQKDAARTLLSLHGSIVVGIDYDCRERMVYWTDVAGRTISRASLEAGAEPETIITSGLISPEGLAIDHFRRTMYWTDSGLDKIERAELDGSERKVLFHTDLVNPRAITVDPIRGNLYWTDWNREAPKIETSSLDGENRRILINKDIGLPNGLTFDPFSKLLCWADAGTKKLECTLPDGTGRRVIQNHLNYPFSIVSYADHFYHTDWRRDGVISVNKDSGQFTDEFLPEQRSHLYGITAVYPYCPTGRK
Substance “LAR FNIII4-FLAG (purified soluble 4th FNIII domain of LAR) (domain or fragment)” has a Kd of 1900 nM.
“LAR FNIII2-FLAG (purified soluble 2nd FNIII domain of LAR) (domain or fragment)” gave a Kd of 2000 nM.
For “LAR FNIII5-FLAG (purified soluble 5th FNIII domain of LAR) (domain or fragment)”, the Kd was 1400 nM.
“LAR FNIII7-FLAG (purified soluble 7th FNIII domain of LAR) (domain or fragment)” was tested, and the Kd was 2500 nM.
